From publication PMC10332591
Where “and” joins values, the source holds several entries; their conditions need not be identical. Identical values can stand only once.

Molecular target: human CD64 (FcγRI) (human) (UniProt P12314)
Assay: BLI; Octet RED96; biotinylated human CD64, CD32a or CD16a loaded on streptavidin biosensors; serially diluted ARX788 drug substance in HBS-P+ buffer; global fit, Langmuir 1:1 model; for CD32a and CD16a only 3.0 seconds of the dissociation step fitted to avoid avidity effects

Chain of human CD64 (FcγRI) (human) (P12314 16-374): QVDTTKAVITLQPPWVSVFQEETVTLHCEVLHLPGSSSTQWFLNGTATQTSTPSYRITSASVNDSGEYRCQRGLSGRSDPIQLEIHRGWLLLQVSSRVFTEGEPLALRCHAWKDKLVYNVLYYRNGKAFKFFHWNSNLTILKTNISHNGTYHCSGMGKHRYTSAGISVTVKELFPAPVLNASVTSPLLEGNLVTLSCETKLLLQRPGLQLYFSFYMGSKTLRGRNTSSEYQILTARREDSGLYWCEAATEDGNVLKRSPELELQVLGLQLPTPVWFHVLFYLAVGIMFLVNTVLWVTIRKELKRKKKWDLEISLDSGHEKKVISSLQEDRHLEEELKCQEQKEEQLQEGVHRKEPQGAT

Q: With ARX788 (antibody) as the substance, how does the KD ratio (Sample/RS) read?
A: Its KD ratio (Sample/RS) is 0.98 and 0.89 and 1.
